Experimental data published in patent US20190017046A1.

How the values were obtained:
[1] = molecular target: lysozyme, fluorescence-labeled with Alexa Fluor 488; experiment: grade of lysozyme carrying rate in the summary table (A: equal to or higher than 50%)
[2] = molecular target: lysozyme, fluorescence-labeled with Alexa Fluor 488; experiment: fluorescent lysozyme retained in the sponge after 3 h in 10x diluted PBS; supernatant fluorescence, plate reader
[3] = molecular target: lysozyme, fluorescence-labeled with Alexa Fluor 488; experiment: grade of lysozyme carrying rate in the summary table (B: 25% or higher and less than 50%)
[4] = molecular target: lysozyme, fluorescence-labeled with Alexa Fluor 488; experiment: grade of lysozyme carrying rate in the summary table (C: less than 25%)

| Substance | lysozyme carrying rate [1] | lysozyme carrying rate (actual measurement value) [2] | lysozyme carrying rate [3] | lysozyme carrying rate [4] |
| --- | --- | --- | --- | --- |
| member for a preparation "A": thermally crosslinked substance of CBE3 and succinylated CBE3, molar ratio of CBE3 to succinylated CBE3 = 1 to 3 | > 50% | 71% |  |  |
| member for a preparation "B": thermally crosslinked substance of CBE3 and succinylated CBE3, molar ratio of CBE3 to succinylated CBE3 = 1 to 1 |  | 66% |  |  |
| member for a preparation "C": thermally crosslinked substance of CBE3 and succinylated CBE3, molar ratio of CBE3 to succinylated CBE3 = 3 to 1 |  | 38% | 25 to 50% |  |
| member for a preparation "G": thermally crosslinked CBE3 only, molar ratio of CBE3 to succinylated CBE3 = 1 to 0 |  | 8% |  | < 25% |
